From publication PMC9850916 (Biochemistry, 2022) come the findings set out here.

Assay in all cases: SPR
For orientation: Surface plasmon resonance follows binding to a sensor surface in real time, without labels.

Assay [1] concerns the target maltose-binding protein-linked IgG1-Fc fragment ( | human, N-glycosylated Fc).
The target in assay [2] is IgG1-Fc fragment produced by Expi293 cells (human, N-glycosylated).
Assay [3] has as its target papain-digested Fc fragment of commercially available rituximab (human, N-glycosylated).

B1: mutant human FcγRIIIa (V158) ectodomain (amino acid residues 1–175) with nine amino acid mutations a (receptor)
chain: RTEDLPKAEVILEPQWNRVLEKDSVTLKCRGAYSPEDNSTQWFHNESLISSQASSYLIDAATVDDSGEYRCQTSLSTLSDPVQLEVHIGWLLLQAPRWEFKEGDPIHLRCHSWKNTALHKVTYLQNGKGRKYFHHNSDFYIPKATLKDSGSYSCRGLVGSKNVSSETVNITITQG
For B1, the Kd – broadly, the free concentration of one partner at which half of the binding sites on the other are occupied at equilibrium, for simple one-to-one binding – in assay [1] turned out to be 3470 nM; in assay [2] it was 1680 nM; in assay [3] it was 1660 nM. In addition, the dissociation rate constant (koff) (usually a measure of how fast the partners let go of each other) in assay [1] was 0.0635 s⁻¹; in assay [2], 0.0802 s⁻¹; in assay [3], 0.0721 s⁻¹. The on-rate (kon) (as a rule, a measure of how fast the partners come together) turned out to be 18400 M⁻¹ s⁻¹ in assay [1], 47800 M⁻¹ s⁻¹ in assay [2] and 43900 M⁻¹ s⁻¹ in assay [3].
